This note sets out measurements from the supplement of paper PMC10567573.

First the molecules themselves.
B1: PLAGL1 (parent)
chain: LELGSTEVLLDHLKAHAEEKPPSG
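Also: lentivirally expressed fusions sorted by FACS into six bins by GFP to DsRed ratio, PSI derived from sequencing read proportions per bin multiplied by bin number.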

The data set covers variants of B1. The experiment in a line: protein stability index of a GFP-peptide fusion (GPS, HEK-293T) (PSI 1-6); higher = more stable. The following applies: c terminus: a fixed tail appended.
LELGSTEVLLDHLKAEAEEKPPSG [H16E]: the protein stability index came to 4.6.
With LELGSTEVLLDHLKAPAEEKPPSG [H16P], the protein stability index was found to be 5.07.
For LELGSTEVLLDHLKACAEEKPPSG [H16C], the protein stability index stood at 4.2.
Take LVLGSTEVLLDHLKAHAEEKPPSG [E2V]: the protein stability index was 2.49.
For the variant LFLGSTEVLLDHLKAHAEEKPPSG [E2F], the protein stability index came to 2.15.
LCLGSTEVLLDHLKAHAEEKPPSG [E2C]: the protein stability index is 3.84.
LWLGSTEVLLDHLKAHAEEKPPSG [E2W]: the protein stability index came to 2.
Turning to LALGSTEVLLDHLKAHAEEKPPSG [E2A], the protein stability index is 3.53.
As for LLLGSTEVLLDHLKAHAEEKPPSG [E2L], the figure is 2.27; as for WELGSTEVLLDHLKAHAEEKPPSG [L1W], 4.28.
For the variant KELGSTEVLLDHLKAHAEEKPPSG [L1K], the protein stability index amounted to 5.53.
With PELGSTEVLLDHLKAHAEEKPPSG [L1P], the protein stability index came out at 5.23.
Take FELGSTEVLLDHLKAHAEEKPPSG [L1F]: the protein stability index turned out to be 4.48.
Consider TELGSTEVLLDHLKAHAEEKPPSG [L1T], for which the protein stability index worked out at 4.91.
As for LELGSTEVLLGHLKAHAEEKPPSG [D11G], the figure is 3.56.
Take LELGSTEVLLPHLKAHAEEKPPSG [D11P]: the protein stability index came out at 5.43.
Regarding LELGSTEVLLVHLKAHAEEKPPSG [D11V], the protein stability index was found to be 1.86.
For the variant LELGSTEVLLIHLKAHAEEKPPSG [D11I], the protein stability index is 1.25.
Regarding LELGSTEVLLQHLKAHAEEKPPSG [D11Q], the protein stability index came out at 2.17.
LELGSTEVLLLHLKAHAEEKPPSG [D11L]: the protein stability index is 1.79.
LELGSTEVLYDHLKAHAEEKPPSG [L10Y]: the protein stability index was found to be 5.26.
As to LELGSTEVLWDHLKAHAEEKPPSG [L10W], the protein stability index worked out at 4.81.
As for LELGSTEVLMDHLKAHAEEKPPSG [L10M], the protein stability index amounted to 5.42.
In the case of LELGSTEVLSDHLKAHAEEKPPSG [L10S], the protein stability index was determined as 5.42.
Turning to LELGSTEVLFDHLKAHAEEKPPSG [L10F], the protein stability index worked out at 5.3.
As to LELGSTEVLDDHLKAHAEEKPPSG [L10D], the protein stability index was 5.35.
For the variant LELGSTEVLADHLKAHAEEKPPSG [L10A], the protein stability index was 5.72.
In the case of LELGSTEVLPDHLKAHAEEKPPSG [L10P], the protein stability index was determined as 5.36.
On to LELGSTEVLQDHLKAHAEEKPPSG [L10Q], for which the protein stability index was found to be 5.41.
Turning to LELGSTEVLEDHLKAHAEEKPPSG [L10E], the protein stability index came to 4.86.
For the variant LELGSTEVLCDHLKAHAEEKPPSG [L10C], the protein stability index is 5.35.
Take LELGSTEVLLDHLKAHAEEKGPSG [P21G]: the protein stability index came to 4.45.
Take LELGSTEVLLDHLKAHAEEKTPSG [P21T]: the protein stability index was 4.56.
LELGSTEVLLDHLKAHAEEKFPSG [P21F]: the protein stability index was 3.72.
For the variant LELGSTEVLLDHLKAHAEEKNPSG [P21N], the protein stability index was found to be 4.85.
For the variant LELGSTEVLLDHLKAHAEEKKPSG [P21K], the protein stability index stood at 5.04.
Regarding LELGSTEVLLDHLKAHAEEKHPSG [P21H], the protein stability index turned out to be 4.57.
Consider LELGSTEVLLDHLKAHAEEKAPSG [P21A], for which the protein stability index turned out to be 4.8.
In the case of LELGSTEVLLDHLKAHAEEKQPSG [P21Q], the protein stability index worked out at 4.84.
As for LELGSTEVLLDHLKAHAEEKCPSG [P21C], the figure is 3.55.
Turning to LELGSTEVLLDHLKAHAEEKWPSG [P21W], the protein stability index is 3.53.
As for LELGATEVLLDHLKAHAEEKPPSG [S5A], the figure is 3.22.
In the case of LELGTTEVLLDHLKAHAEEKPPSG [S5T], the protein stability index amounted to 4.44.
Turning to LELGKTEVLLDHLKAHAEEKPPSG [S5K], the protein stability index came out at 3.85.
For the variant LELGCTEVLLDHLKAHAEEKPPSG [S5C], the protein stability index came out at 4.51.
Turning to LELGVTEVLLDHLKAHAEEKPPSG [S5V], the protein stability index was 3.79.
As to LELGMTEVLLDHLKAHAEEKPPSG [S5M], the protein stability index came to 2.3.
Take LELGPTEVLLDHLKAHAEEKPPSG [S5P]: the protein stability index was 4.79.
Take LELGGTEVLLDHLKAHAEEKPPSG [S5G]: the protein stability index amounted to 4.56.
As for LELGSTEVLLDHSKAHAEEKPPSG [L13S], the protein stability index turned out to be 5.6.
Regarding LELGSTEVLLDHHKAHAEEKPPSG [L13H], the protein stability index stood at 5.61.
As for LELGSTEVLLDHNKAHAEEKPPSG [L13N], the figure is 5.64; as for LELGSTEVLLDHTKAHAEEKPPSG [L13T], 5.46; as for LELGSTEVLLDHEKAHAEEKPPSG [L13E], 5.3.
For the variant LELGSTEVLLDHIKAHAEEKPPSG [L13I], the protein stability index is 4.97.
As for LELGSTEVLLDHAKAHAEEKPPSG [L13A], the figure is 5.38; as for LELGSTEVLLDHQKAHAEEKPPSG [L13Q], 5.76.
Consider LELGSTEVLLDHMKAHAEEKPPSG [L13M], for which the protein stability index turned out to be 5.09.
LELGSTEVLLDHRKAHAEEKPPSG [L13R]: the protein stability index amounted to 5.6.
On to LELGSTEVLLDHLKAHAEEKPPSL [G24L], for which the protein stability index worked out at 3.51.
Regarding LELGSTEVLLDHLKAHAEEKPPSD [G24D], the protein stability index is 4.91.
Turning to LELGSTEVLLDHLKAHAEEKPPSQ [G24Q], the protein stability index turned out to be 4.63.
Regarding LELGSTEVLLDHLKAHAEEKPPSF [G24F], the protein stability index turned out to be 3.21.
For the variant LELGSTEVLLDHLKAHAEEKPPSM [G24M], the protein stability index is 3.61.
Consider LELGSTEVLLDHLKAHAEEKPPSS [G24S], for which the protein stability index amounted to 4.46.
Consider LELGSTEVLLDHLKAHAEEKPPSV [G24V], for which the protein stability index was determined as 3.88.
For the variant LELGSTEVLLDHLKAHAEEKPPSN [G24N], the protein stability index came out at 4.54.
Regarding LELGSTEVLLDHLKAHAEEKPPSR [G24R], the protein stability index is 4.21.
With LELGSTEVLLDHLDAHAEEKPPSG [K14D], the protein stability index amounted to 5.56.
On to LELGSTEVLLDHLEAHAEEKPPSG [K14E], for which the protein stability index came out at 5.5.
On to LELGSTEVLLDHLWAHAEEKPPSG [K14W], for which the protein stability index amounted to 4.1.
On to LELGSTEVLLDHLGAHAEEKPPSG [K14G], for which the protein stability index is 5.39.
As for LELGSTEVLLDHLSAHAEEKPPSG [K14S], the figure is 5.04.
In the case of LELGSTEVLLDHLKMHAEEKPPSG [A15M], the protein stability index is 4.48.
Regarding LELGSTEVLLDHLKVHAEEKPPSG [A15V], the protein stability index worked out at 4.72.
As to LELGSTEVLLDHLKSHAEEKPPSG [A15S], the protein stability index worked out at 4.44.
As to LELGSTEVLLDHLKGHAEEKPPSG [A15G], the protein stability index is 4.29.
Turning to LELGSTEVLLDHLKFHAEEKPPSG [A15F], the protein stability index was determined as 4.18.
As for LELGSTEVLLDHLKIHAEEKPPSG [A15I], the figure is 4.24; as for LELGSTEVLLDHLKRHAEEKPPSG [A15R], 3.89.
As for LELGSTEVLLDHLKYHAEEKPPSG [A15Y], the protein stability index amounted to 4.04.
As for LELGSTEVLLDHLKEHAEEKPPSG [A15E], the figure is 5.05; as for LELGSHEVLLDHLKAHAEEKPPSG [T6H], 5.42.
In the case of LELGSVEVLLDHLKAHAEEKPPSG [T6V], the protein stability index is 4.24.
As for LELGSFEVLLDHLKAHAEEKPPSG [T6F], the figure is 3.62; as for LELGSGEVLLDHLKAHAEEKPPSG [T6G], 4.75.
Consider LELGSKEVLLDHLKAHAEEKPPSG [T6K], for which the protein stability index turned out to be 5.38.
As for LELGSMEVLLDHLKAHAEEKPPSG [T6M], the figure is 3.74; as for LELGSCEVLLDHLKAHAEEKPPSG [T6C], 4.38.
Regarding LELGSNEVLLDHLKAHAEEKPPSG [T6N], the protein stability index amounted to 4.76.
For the variant LELGSPEVLLDHLKAHAEEKPPSG [T6P], the protein stability index amounted to 4.25.
LELGSWEVLLDHLKAHAEEKPPSG [T6W]: the protein stability index came out at 2.89.
With LELGSAEVLLDHLKAHAEEKPPSG [T6A], the protein stability index is 3.58.
As to LELGSEEVLLDHLKAHAEEKPPSG [T6E], the protein stability index turned out to be 5.49.
